Data as given in paper PMC3140484.

What was measured:
[1] = tested on: CopR (CgtR9) response regulator, preincubated with acetylphosphate (Corynebacterium glutamicum ATCC 13032); assay: EMSA; settings: 50 mM Tris-HCl pH 7.5, 50 mM KCl, 10 mM MgCl2, 0.5 mM EDTA, 10% glycerol, room temperature 30 min; 50 mM acetylphosphate preincubation (60 min) for P2; DNA …
[2] = tested on: CopR (CgtR9) response regulator, unphosphorylated (Corynebacterium glutamicum ATCC 13032); assay: EMSA; settings: unphosphorylated; apparent Kd; 50 mM Tris-HCl pH 7.5, 50 mM KCl, 10 mM MgCl2, 0.5 mM EDTA, 10% glycerol, room temperature 30 min; 50 mM acetylphosphate preincubation (60 min) for P2; DNA …

copR promoter Kd probe, 90 bp
Kd [1]: 400 nM | Kd [2]: 2300 nM
